In US20190248887A1:
pEC50: −log10 of the molar value.

Molecular target: synthetic peptide representing amino acids 24 through 39 of FXYD5 (Seq ID No. 1), coupled to maleimide activated BSA (Homo sapiens)
Test: chemiluminescent ELISA, BSA-coupled peptide 24-39 coated, streptavidin-HRP detection; printed as relative binding affinity

| pEC50 | Substance |
| --- | --- |
| 8.43 | N20-linker-biotin conjugate (goat polyclonal anti-FXYD5 N20, sc-30602, coupled via SM(PEG)24 to biotin) (antibody) |
| 7.42 | L15-linker-biotin conjugate (goat polyclonal anti-FXYD5 L15, sc-30603, coupled via SM(PEG)24 to biotin) (antibody) |
